Data as given in publication PMC8233204, “Cardiac myosin-binding protein C interaction with actin is inhibited by compounds identified in a high-throughput fluorescence lifetime screen” (The Journal of Biological Chemistry, 2021).
Like-named read-outs stand apart in the source and are kept apart here.

How the values were obtained:
[1] = target: T1, ErIA-actin (Oryctolagus cuniculus, UniProt P68135); assay: Transient phosphorescence anisotropy (TPA) of ErIA-actin alone; assay type: biochemical, rabbit; conditions: concentration not given
T1 construct: Actin was prepared from rabbit skeletal muscle by extracting acetone powder; from tissue; host or cells: rabbit skeletal muscle (acetone powder)
Protocol: […] These were added together with glucose catalase/oxidase to prevent photobleaching, and TPA was performed at 25 °C to determine anisotropy values ([7]).

[2] = target: FMAL-actin (F-actin from rabbit skeletal muscle labeled at Cys-374 with fluorescein-5-maleimide) (rabbit) (UniProt P68135); assay: FRET or BRET; TR-FRET; 1 μM F-actin labeled (to 10%) with FMAL (donor) with 0-20 μM TMR-C0-C2^Cys225 (acceptor) ±PKA; M-ABB
[3] = target: FMAL-actin (F-actin from rabbit skeletal muscle labeled at Cys-374 with fluorescein-5-maleimide) (rabbit) (UniProt P68135); assay: as above; remark: listed apart in the source
[4] = target: T2, ErIA-actin + C0-C2 (Homo sapiens, UniProt Q14896); assay: Transient phosphorescence anisotropy (TPA) of ErIA-actin with C0-C2; assay type: biochemical; conditions: 1 μM ErIA-actin, 2 μM C0-C2; actin alone 0.033 ± 0.001
T2 construct: N-terminal domains C0 through C2 (C0-C2), containing the proline/alanine-rich linker (P/A) and the M-domain (M); 6x His (N, cleaved yes); TEV protease cleavage site (N, cleaved yes); made in house; host or cells: E. coli BL21DE3 (C0-C2); actin purified from rabbit skeletal muscle
Protocol: The same mixtures were tested in the presence of 2 μM C0-C2. These were added together with glucose catalase/oxidase to prevent photobleaching, and TPA was performed at 25 °C to determine anisotropy values ([7]).

T2 sequence (Q14896 1-451 limits assumed): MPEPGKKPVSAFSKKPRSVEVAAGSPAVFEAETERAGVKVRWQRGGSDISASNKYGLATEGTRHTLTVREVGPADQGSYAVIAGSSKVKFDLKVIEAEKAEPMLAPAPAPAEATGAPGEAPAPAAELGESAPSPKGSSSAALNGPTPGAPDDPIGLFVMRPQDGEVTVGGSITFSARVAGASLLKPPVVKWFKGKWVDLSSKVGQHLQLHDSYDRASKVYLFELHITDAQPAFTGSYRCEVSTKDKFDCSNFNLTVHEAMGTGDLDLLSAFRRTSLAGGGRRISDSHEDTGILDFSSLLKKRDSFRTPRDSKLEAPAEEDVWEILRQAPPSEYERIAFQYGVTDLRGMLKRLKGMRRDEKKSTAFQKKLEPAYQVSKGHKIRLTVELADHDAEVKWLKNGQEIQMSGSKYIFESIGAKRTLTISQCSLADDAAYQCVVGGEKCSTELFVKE

In the case of `O=C(NCCO)c1cccc(-c2cc(Nc3ccc(OC(F)(F)F)cc3)ncn2)c1` [GNF-5], the “effect on actin anisotropy (TPA), control compound” value [1] is reported as “does bind actin and changes its anisotropy”.

“TMR-C0-C2^Cys225 phosphorylated by PKA (from UniProt Q14896 1-1274) (domain or fragment)” was tested, and the Kd [2] was 3 µM and the Kd [3] was 8 µM.

For “C0-C2: recombinant N-terminal fragment (domains C0 through C2) of human cMyBP-C”, the “actin's final anisotropy in the presence of C0-C2” value [4] was 0.071 ± 0.003.
